In patent US20170267750A1, “Method of Treating Ovarian and Renal Cancer Using Antibodies Against T Cell Immunoglobulin Domain and Mucin Domain 1 (TIM-1) Antigen” (Celldex Therapeutics, Inc., priority 2005, published 2017):
Marks after values point to notes of the source that are not given here.

Legend:
BT549 cells = assay: FACS analysis on antigen negative BT549 breast cancer cells (control); format: binding, human; conditions: normalized to isotype control (pK16)
[1] = biological target: T1, TIM-1 protein on human CD4+ Th2 cells (Homo sapiens, UniProt Q96D42); assay: FACS analysis of expression of TIM-1 protein on human CD4+ Th2 cells; format: binding
T1 construct: a major fraction of polarized human Th2 and Th1 cells do express TIM-1; endogenous in cells; host or cells: primary human CD4+ T cells from blood
T1 sequence (Q96D42 21-364): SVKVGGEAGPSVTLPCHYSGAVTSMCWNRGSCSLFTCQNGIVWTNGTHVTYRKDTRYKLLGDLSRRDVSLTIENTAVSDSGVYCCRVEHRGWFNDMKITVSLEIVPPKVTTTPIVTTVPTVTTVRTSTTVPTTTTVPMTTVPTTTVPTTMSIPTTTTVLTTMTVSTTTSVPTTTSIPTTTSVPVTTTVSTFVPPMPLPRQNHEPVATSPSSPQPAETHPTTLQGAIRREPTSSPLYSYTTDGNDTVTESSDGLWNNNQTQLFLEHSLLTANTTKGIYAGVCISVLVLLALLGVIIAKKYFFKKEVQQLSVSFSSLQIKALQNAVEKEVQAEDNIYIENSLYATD
Description: Mononuclear cells were isolated from human blood diluted 1:1 in PBS, by spinning over Ficoll for 20 minutes. The mononuclear cells were washed twice at 1000 rpm with PBS-Mg and Ca and re-suspended in Miltenyi buffer (Miltenyi Biotec Inc., Auburn, Calif.); PBS, 0.5% BSA, 5 mM EDTA at approximately 10^8 cells/mL. 20 μL of CD4 Miltenyi beads were added per 107 cells and incubated for 15 minutes on ice. Cells were washed with a 10-fold excess volume of Miltenyi buffer. A positive selection column (type VS+) (Miltenyi Biotec Inc., Auburn, Calif.) was washed with 3 mL of Miltenyi buffer. The pelleted cells were re-suspended at 10^8 cells per mL of Miltenyi buffer and applied to the washed VS column. The column was then washed three times with 3 mL of Miltenyi buffer. Following this, the VS column was removed from the magnetic field and CD4+ cells were eluted from the column with 5 mL of Miltenyi buffer. […]
FACS analysis was performed to determine the expression of TIM-1 protein as detected with five anti-TIM-1 monoclonal antibodies (2.59.2, 1.29, 2.70.2, 2.56.2, 2.45.1) on human and mouse resting CD4+ T cells, as well as human activated and human polarized CD4+ T cells.
Data is reported as the geometric mean of the fluorescence intensity.

TIM-1 antigen = biological target: T2, TIM-1 antigen (Homo sapiens, UniProt Q96D42, DEL158-162/L179P); assay: Epitope binning (antigen binding competition, Luminex)
T2 construct: V5; His; made in house; host or cells: baculovirus expression system (pMelV5His vector / pBlueBac)
T2 sequence (Q96D42 with tags, fused parts or gaps DEL158-162/L179P): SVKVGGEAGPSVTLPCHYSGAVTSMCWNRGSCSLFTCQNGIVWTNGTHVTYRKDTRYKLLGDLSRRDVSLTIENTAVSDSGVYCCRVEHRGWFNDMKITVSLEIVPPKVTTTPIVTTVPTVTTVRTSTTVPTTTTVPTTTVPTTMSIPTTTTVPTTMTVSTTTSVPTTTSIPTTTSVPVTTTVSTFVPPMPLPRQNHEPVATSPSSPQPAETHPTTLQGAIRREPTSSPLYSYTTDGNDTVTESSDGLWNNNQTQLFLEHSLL
Description: Certain antibodies, described herein were “binned” in accordance with the protocol described in U.S. Patent Application Publication No. 20030157730, published on Aug. 21, 2003, entitled “Antibody Categorization Based on Binding Characteristics.”
MxhIgG conjugated beads were prepared for coupling to primary antibody. The volume of supernatant needed was calculated using the following formula: (n+10)×50 μL (where n=total number of samples on plate). Where the concentration was known, 0.5 μg/mL was used. Bead stock was gently vortexed, then diluted in supernatant to a concentration of 2500 of each bead per well or 0.5×10^5/mL and incubated on a shaker in the dark at room temperature overnight, or 2 hours if at a known concentration of 0.5 μg/mL. Following aspiration, 50 μL of each bead was added to each well of a filter plate, then washed once by adding 100 μL/well wash buffer and aspirating. Antigen and controls were added to the filter plate 50 μL/well then covered and allowed to incubate in the dark for 1 hour on shaker. Following a wash step, a secondary unknown antibody was added at 50 μL/well using the same dilution (or concentration if known) as used for the primary antibody. The plates were then incubated in the dark for 2 hours at room temperature on shaker followed by a wash step. Next, 50 μL/well biotinylated mxhIgG diluted 1:500 was added and allowed to incubate in the dark for 1 hour on shaker at room temperature. Following a wash step, 50 μL/well Streptavidin-PE was added at 1:1000 and allowed to incubate in the dark for 15 minutes on shaker at room temperature. Following a wash step, each well was resuspended in 80 μL blocking buffer and read using a Luminex system.

Th2 cells = assay: Cytokine assay (ELISA of culture supernatants), CD4+ Th2 cells; format: cell-based, human; conditions: for IL-5 production, percent of cytokine production detected using the control PK16.3 mAb / IL-10 production, percent of cytokine production detected using the control PK16.3 mAb / IL-13 production, percent of cytokine production detected using the control PK16.3 mAb / IL-4 production, percent of cytokine production detected using the control PK16.3 mAb: Th2
Description: (§1) IL-4, IL-5, IL-10, IL-13, and IFNγ production levels by activated Th1 and Th2 cell were measured in culture supernatants treated with anti-TIM-1 antibodies using standard ELISA protocols. Cytokine production by Th1 or Th2 cells treated with anti-TIM-1 antibodies was compared to Th1 or Th2 cells treated with the control PK16.3 antibody. In addition, the following samples were run in parallel as internal controls: i) anti-CD3 treated Th1 or Th2 cells, where no cytokine production is expected because of the absence of co-stimulation, ii) anti-CD3/anti-CD28 stimulated Th1 or Th2 cells, expected to show detectable cytokine production, and iii) untreated Th1 or Th2 cells. CD4+ T cells were isolated as described in the Example above. Isolated CD4+ lymphocytes were then spun down and re-suspended in DMEM 5% FCS plus additives (non-essential amino acids, sodium pyruvate, mercaptoethanol, glutamine, penicillin, and streptomycin) at 10^6 cells/mL. Falcon 6-well non-tissue culture treated plates were pre-coated overnight with anti-CD3 (2 μg/mL) and anti-CD28 (10 μg/mL) (600 μL total in Dulbecco's PBS) overnight at 4° C. The plates were washed with PBS and CD4+ lymphocytes were suspended at 500,000 cells/mL in Th2 medium: DMEM+10% FCS plus supplements and IL-2 5 ng/mL, IL-4 5 ng/mL, anti-IFN gamma 5 μg/mL and cells were stimulated 4-6 days at 37° C. and 5% CO2 in the presence of 5 μg/mL of mAb recognizing the TIM-1 protein or isotype matched negative control mAb PK16.3.
(§2) In another set of experiments, CD4+ lymphocytes were suspended at 500,000 cells/mL in Th1 medium: DMEM+10% FCS plus supplements and IL-2 5 ng/mL, IL12 5 ng/mL, anti-IL-4 5 μg/mL and stimulated 4-6 days 37° C. temp and 5% CO2 in the presence of 5 μg/mL TIM-1 or isotype matched control mAb PK16.3. Cells were washed two times in DMEM and resuspended in DMEM, 10% FCS plus supplements and 2 ng/mL IL-2 (500,000 cells/mL) in the presence of 5 μg/mL TIM-1 mAb or control PK16.3 mAb and cultured (rested) for 4-6 days at 37° C. and 5% CO2. The process of activation and resting was repeated at least once more as described above with the addition of anti-CD95L (anti-FAS ligand) to prevent FAS-mediated apoptosis of cells. Falcon 96-well non-tissue culture treated plates pre-coated overnight with anti-CD3 mAb at 500 ng/mL and costimulatory molecule B7H2 (B7 homolog 2) 5 μg/mL were washed and 100 μL of TIM-1 mAb treated Th1 or Th2 (200,000 cells) added per well. After 3 days of culture, the supernatants were removed and IL-4, IL-5, IL-10, IL-13, and IFNγ […]levels were determined by ELISA (Pharmingen, San Diego, Calif. or R&D Systems, Minneapolis, Minn.).
Each experiment used purified CD4+ cells isolated from whole blood samples from two independent donors. Cytokine production is reported as the percent of cytokine production detected using the control PK16.3 mAb. The anti-TIM-1 mAb used in each experiment is specified along the bottom row.

Th1 cells = assay: Cytokine assay (ELISA of culture supernatants), CD4+ Th1 cells; format: cell-based, human; conditions: 5 μg/mL mAb
Description: as §1, §2

[2] = 5 μg/mL mAb, compared to control PK16.3 mAb
[3] = TH2, Donor 12 + 17, control PK16.3 mAb, 5 μg/mL mAb
[4] = TH1, Donor 12 + 17, control PK16.3 mAb

B1: mAb 1.29: fully human IgG2 kappa anti-TIM-1 monoclonal antibody; heavy chain SEQ ID NO: 2, light chain SEQ ID NO: 4 (antibody, listed as Homo Sapiens, V domains shown)
VH: QVQLQESGPGLVKPSETLSLTCTVSGGSVSSGGYYWSWIRQPPGKGLEWIGFIYYTGSTNYNPSLKSRVSISVDTSKNQFSLKLSSVTAADAAVYYCARDYDWSFHFDYWGQGTLVTVSSA
VL: DIQMTQSPSSLSASIGDRVTITCRASQGIRNDLGWYQQKPGKAPKRLIYAASSLQSGVPSRFSGSGSGTEFTLTISSLQPEDFATYYCLQHNSYPLTFGGGTKVEIKR
With B1 the “Geo Mean Ratio (relative to negative control) BT549” value (BT549 cells) was 1.2, the “Geometric mean of fluorescence intensity” value ([1]; Polarized Human CD4+ Th2 Cells) was 22.3 and the “Geometric mean of fluorescence intensity” value ([1]; Resting Human CD4+ T cells) was 4.7. For the same molecule, the BIN (TIM-1 antigen; Table 8) was 1, the Bin (TIM-1 antigen; Table 9) was 1 and the “IL-5 release from Th2 cells” value (Th2 cells; [2]) was “significantly inhibited”. For the same molecule, the “IL-10 release from Th2 cells” value (Th2 cells; [2]) was “significantly inhibited”, the “IL-13 release from Th2 cells” value (Th2 cells; [2]) was “significantly inhibited” and the “IL-4 Percentage of Control Antibody” value (Th2 cells; [3]) was 112.54 Percentage of Control Antibody. The “IL-5 Percentage of Control Antibody” value (Th2 cells; [3]) was 80.26 Percentage of Control Antibody, the “IL-10 Percentage of Control Antibody” value (Th2 cells; [3]) was 44.45 * Percentage of Control Antibody and the “IL-13 Percentage of Control Antibody” value (Th2 cells; [3]) was 48.91 ** Percentage of Control Antibody. The “INF γ Percentage of Control Antibody” value (Th2 cells; [3]) was 112.54 Percentage of Control Antibody, the “IL-5 production, percent of cytokine production detected using the control PK16.3 mAb” value (shortened to “IL-5 production, percent”) (Th2 cells; Donor ID 12) was 2% and the “IL-10 production, percent of cytokine production detected using the control PK16.3 mAb” value (from here on “IL-10 production, percent”) (Th2 cells; Donor ID 12) was 109%. The “IL-13 production, percent of cytokine production detected using the control PK16.3 mAb” value (from here on “IL-13 production, percent”) (Th2 cells; Donor ID 12) was 91%, the “IL-4 production, percent of cytokine production detected using the control PK16.3 mAb” value (Th2 cells; Donor ID 12 + 14) was 626% and the “IL-5 production, percent” value (Th2 cells; Donor ID 12 + 14) was 5%. The “IL-10 production, percent” value (Th2 cells; Donor ID 12 + 14) was 83%, the “IL-4 production, percent of cytokine production detected using the control PK16.3 mAb” value (Th2 cells; Donor ID 13 + 14) was 130% and the “IL-5 production, percent” value (Th2 cells; Donor ID 13 + 14) was 122%. The “IL-10 production, percent” value (Th2 cells; Donor ID 13 + 14) was 19%, the “IL-13 production, percent” value (Th2 cells; Donor ID 13 + 14) was 17% and the “IL-5 production, percent” value (Th2 cells; Donor ID 14) was 67%. For the same molecule, the “IL-10 production, percent” value (Th2 cells; Donor ID 14) was 45%, the “IL-13 production, percent” value (Th2 cells; Donor ID 14) was 100% and the “block of Th2 cytokines across donor groups” value (Th2 cells; multiple experiments with different donors) was “reproducibly block one or more of the Th2 cytokines”. The “IL-10 release from Th1 cells” value (Th1 cells; compared to control PK16.3 mAb) was “significantly inhibited”, the “IL-13 release from Th1 cells” value (Th1 cells; compared to control PK16.3 mAb) was “significantly inhibited” and the “IL-4 Percentage of Control Antibody” value (Th1 cells; [4]) was 81.05 Percentage of Control Antibody. The “IL-5 Percentage of Control Antibody” value (Th1 cells; [4]) was 94.63 Percentage of Control Antibody, the “IL-10 Percentage of Control Antibody” value (Th1 cells; [4]) was 60.77 ** Percentage of Control Antibody and the “IL-13 Percentage of Control Antibody” value (Th1 cells; [4]) was 73.95 *** Percentage of Control Antibody. The “INF γ Percentage of Control Antibody” value (Th1 cells; [4]) was 93.51 Percentage of Control Antibody.
